This note sets out measurements from US20250250357A1 (NANJING ZAIMING PHARMACEUTICAL, published 2025).

Assay [1] concerns the target T1, human MSLN-R3 protein (human, UniProt Q13421 487-598).
T1 construct: also called hMSLN-R3
Put plainly: ELISA on coated antigen, antibody 0.001 nM. In general terms: ELISA stands for enzyme-linked immunosorbent assay.

Assay [2] deals with T1, human MSLN-R3 protein. Put plainly: ELISA on coated antigen, antibody 100 nM.
Assay [3] concerns the target T2, human MSLN-hFc protein (Acro, Cat. No. MSN-H5253) (human, UniProt Q13421 296-580).
T2 construct: the method names the coated protein as human MSLN-hFc (Acro); also called human MSLN full-length protein
Kind of assay: ELISA on coated antigen, antibody 0.01 nM.

Assay [4] has as its target T2, human MSLN-hFc protein (Acro, Cat. No. …). Kind of assay: ELISA on coated antigen, antibody 1 nM.
The target is the same in assay [5]. Kind of assay: ELISA on coated antigen, antibody 0.0001 nM.
Assay [6] has as its target T1, human MSLN-R3 protein. Kind of assay: ELISA on coated antigen, antibody 10 nM.
Assay [7] has as its target T2, human MSLN-hFc protein (Acro, Cat. No. …). Put plainly: ELISA on coated antigen, antibody 0.001 nM.
The target of assay [8] is T1, human MSLN-R3 protein. Put plainly: ELISA on coated antigen, antibody 0.0001 nM.
Assay [9] concerns the target T2, human MSLN-hFc protein (Acro, Cat. No. …). Kind of assay: ELISA on coated antigen, antibody 100 nM.
Assay [10] shares this target. Kind of assay: ELISA on coated antigen, antibody 10 nM.
For assay [11], the target named is T1, human MSLN-R3 protein. Kind of assay: ELISA on coated antigen, antibody 1 nM.
In assay [12] the target is T1, human MSLN-R3 protein. Kind of assay: ELISA on coated antigen, antibody 0.01 nM.
The target in assay [13] is T2, human MSLN-hFc protein (Acro, Cat. No. …). Kind of assay: ELISA on coated antigen, antibody 0.1 nM.
Assay [14] deals with T1, human MSLN-R3 protein. Kind of assay: ELISA on coated antigen, antibody 0.1 nM.
Assay [15] addresses T3, human MSLN-FL-his protein (human, UniProt Q13421 296-580).
T3 construct: Made in HEK293E cells, purified on nickel column; it is put last here; also called human MSLN full-length protein; hMSLN-FL-his; not shown: His tag
Put plainly: ELISA on coated antigen, no antibody (blank, column 'none').

Assay [16] deals with T3, human MSLN-FL-his protein. Kind of assay: ELISA on coated antigen, antibody 10 nM.
The target in assay [17] is T3, human MSLN-FL-his protein. Kind of assay: ELISA on coated antigen, antibody 0.0001 nM.
Assay [18] addresses T3, human MSLN-FL-his protein. Put plainly: ELISA on coated antigen, antibody 0.01 nM.
Assay [19] deals with T3, human MSLN-FL-his protein. Kind of assay: ELISA on coated antigen, antibody 0.1 nM.
The target in assay [20] is T3, human MSLN-FL-his protein. Kind of assay: ELISA on coated antigen, antibody 100 nM.
Assay [21] has as its target T3, human MSLN-FL-his protein. Kind of assay: ELISA on coated antigen, antibody 1 nM.
Assay [22] concerns the target T3, human MSLN-FL-his protein. Put plainly: ELISA on coated antigen, antibody 0.001 nM.

T1 sequence (Q13421 495-606, form in doubt): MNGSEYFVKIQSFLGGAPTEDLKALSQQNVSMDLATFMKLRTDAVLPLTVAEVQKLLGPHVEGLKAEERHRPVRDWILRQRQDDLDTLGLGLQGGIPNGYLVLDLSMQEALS
T2 sequence (Q13421 other isoform, or with tags, fused parts or gaps limits assumed): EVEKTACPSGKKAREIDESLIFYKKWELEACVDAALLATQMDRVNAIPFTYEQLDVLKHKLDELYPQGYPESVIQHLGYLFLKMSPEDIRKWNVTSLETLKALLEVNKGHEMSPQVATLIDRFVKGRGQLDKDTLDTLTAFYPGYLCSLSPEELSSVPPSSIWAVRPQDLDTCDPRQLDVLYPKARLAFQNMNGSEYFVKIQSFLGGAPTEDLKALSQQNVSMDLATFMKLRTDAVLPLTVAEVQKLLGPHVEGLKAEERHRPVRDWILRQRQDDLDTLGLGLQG
T3 sequence (Q13421 other isoform, or with tags, fused parts or gaps): as the sequence (Q13421 other isoform, or with tags, fused parts or gaps limits assumed) above, with R14P counted along it

B1: F7.44.20 (scFv, not shown: small tags and cut ends)
scFv: EVQLQQSGPELVKPGASVKIPCKASGYTFTDYNMDWVKQSHGKSLEWIGDINPSTGGTIYNQKFNGKATLTEDKSASTVYMEFRSLTSDDTAVYYCARRRIGTGYFDVWGTGTTVTVSSGGGGSGGGGSGGGGSQIVLTQSPALMSASPGEKVTLTCSASSSVISSYLSWYQQKPGSSPKLLIYRTSNLASGVPARFSGSGSGTSYSLTISSMEAEDAASYFCHQWSSFPYTFGGGTKLEIK
notes: also called S009-F7.44.20 (parental variable regions, in the humanized-antibody ELISA)
As to B1, the OD450 in assay [1] was 0.04 OD450; in assay [2], 1.96 OD450; in [3], 0.05 OD450; in assay [4], 0.83 OD450; in assay [5], 0.04 OD450; in [6] it was 1.68 OD450. Besides, the OD450 in [7] was 0.17 OD450; in assay [8], 0.04 OD450; in assay [9], 2.97 OD450; in [10], 2.48 OD450; in assay [11], 0.39 OD450; in assay [12], 0.04 OD450. For the same molecule, the OD450 worked out at 0.22 OD450 in assay [13] and 0.07 OD450 in assay [14].

B2: S009-F8-4.5 (antibody, human IgG1, kappa, V domains shown)
VH: QVQLQQPGAELVKPGASVKLSCKASGYTFTIYWMHWVKQRPGQGLEWIGMIHPNSGNTNYNEKFKSKATLTVDKSSSTAYMQLSSLTSEDSAVYYCSLIHWYFDVWGTGTTVTVSS
VL: QIVLTQSPAIMSASPGEKVTMTCSASSSVSYMYWYQQKPGSSPRLLIYDTSNLASGVPVRFSGSGSGTSYSLTISRMEAEDAATYYCQQWSSYPLTFGAGTKLELKR
notes: Human-murine chimeric antibody, human IgG1 heavy and kappa light constant regions
In the case of B2, the OD450 was determined as 0.06 OD in assay [15]; 2.79 OD in assay [16]; 0.07 OD in assay [17]; 0.18 OD in assay [18]; 1.31 OD in [19]; 2.94 OD in [20]. Further, the OD450 in assay [21] was 2.8 OD; in assay [22], 0.1 OD.

B3: S009-F8-7.5 (antibody, human IgG1, kappa, V domains shown)
VH: DVQLQESGPGLVKPSQSLSLTCSVTGYSITSGYYWNWIRQFPGNKLEWMAYIRYDGSNNYNPSLKNRISIIRDTSKNQFFLRLNSVTTEDTATYYCAKSYYGMDDWGQGISVTVSS
VL: DIQMTQSPASLSASVGETVTITCRTSGDIHNYLAWYQQKQGKSPQLLVYKAKTLENGVPSRFTGSGSGTQFSLKIDSLQPEDFGTYYCQHFWTTPYTFGGGTKLEIKR
notes: as for B2
With B3, the OD450 in [15] came to 0.05 OD; in assay [16], 2.73 OD; in [17] it was 0.06 OD; in [18], 0.49 OD; in [19] it was 1.88 OD; in assay [20] it was 3.22 OD. The OD450 in assay [21] was 2.55 OD; in [22] it was 0.12 OD.

B4: F7.44.20-H12 (scFv, not shown: small tags and cut ends)
scFv: EVQLVQSGAEVKKPGASVKVSCKASGYTFTDYNMDWVRQAPGQGLEWMGDINPSTGGTIYNQKFNGRVTMTEDKSASTVYMELSSLRSEDTAVYYCARRRIGTGYFDVWGQGTTVTVSSGGGGSGGGGSGGGGSEIVLTQSPATLSLSPGERATLSCSASSSVISSYLSWYQQKPGSSPRLLIYRTSNLASGIPARFSGSGSGTDYTLTISSLEPEDFAVYYCHQWSSFPYTFGGGTKVEIK
notes: also called S009-F7.44.20 humanized antibody VH2 + VL4
For B4, the OD450 in assay [1] worked out at 0.05 OD450; in assay [2], 2.44 OD450; in assay [3], 0.06 OD450; in assay [4], 1.02 OD450; in assay [5], 0.05 OD450; in [6], 2.12 OD450. The OD450 in assay [7] amounted to 0.05 OD450; in [8] it was 0.05 OD450; in [9] it was 3.17 OD450; in [10], 2.92 OD450; in assay [11], 0.6 OD450; in assay [12], 0.05 OD450. The OD450 was 0.16 OD450 in assay [13] and 0.09 OD450 in assay [14].

B5: F7.44.20-H16 (scFv, not shown: small tags and cut ends)
scFv: EVQLVQSGAEVKKPGASVKVSCKASGYTFTDYNMDWVRQAPGQGLEWMGDINPSTGGTIYNQKFSGRVTMTEDKSASTVYMELSSLRSEDTAVYYCARRRIGTGYFDVWGQGTTVTVSSGGGGSGGGGSGGGGSEIVLTQSPATLSLSPGERATLSCSASSSVISSYLSWYQQKPGSSPRLLIYRTSNLASGIPARFSGSGSGTDYTLTISSLEPEDFAVYYCHQWSSFPYTFGGGTKVEIK
notes: also called S009-F7.44.20 humanized antibody VH2a + VL4
Take B5: the OD450 in [1] turned out to be 0.04 OD450; in assay [2], 1.8 OD450; in [3], 0.05 OD450; in assay [4] it was 1.12 OD450; in assay [5] it was 0.05 OD450; in assay [6] it was 1.6 OD450. The OD450 in assay [7] worked out at 0.05 OD450; in [8], 0.04 OD450; in assay [9], 2.97 OD450; in [10] it was 2.4 OD450; in assay [11] it was 0.72 OD450; in assay [12] it was 0.06 OD450. Moreover, the OD450 in assay [13] was determined as 0.16 OD450; in assay [14] it was 0.1 OD450.

B6: F7.44.20-H15 (scFv, not shown: small tags and cut ends)
scFv: EVQLVQSGAEVKKPGASVKVSCKASGYTFTDYNMDWVRQAPGQGLEWMGDINPSTGGTIYNQKFSGRVTMTEDKSASTVYMELSSLRSEDTAVYYCARRRIGTGYFDVWGQGTTVTVSSGGGGSGGGGSGGGGSEIVLTQSPATLSLSPGERATLSCSASSSVISSYLSWYQQKPGQSPRLLIYRTSNLASGIPARFSGSGSGTDYTLTISSLEPEDFAVYYCHQWSSFPYTFGGGTKVEIK
notes: also called S009-F7.44.20 humanized antibody VH2a + VL3
In the case of B6, the OD450 in assay [1] amounted to 0.04 OD450; in assay [2], 1.86 OD450; in assay [3] it was 0.06 OD450; in [4], 1.24 OD450; in [5] it was 0.05 OD450; in assay [6] it was 1.85 OD450. Besides, the OD450 was determined as 0.05 OD450 in [7]; 0.05 OD450 in assay [8]; 3.26 OD450 in [9]; 2.78 OD450 in assay [10]; 0.77 OD450 in assay [11]; 0.04 OD450 in [12]. For the same molecule, the OD450 is 0.19 OD450 in [13] and 0.11 OD450 in [14].

B7: S009-F8-5.15 (antibody, human IgG1, kappa, V domains shown)
VH: QVQLQQPGTELVKPGASVKLSCKASGYTFTSYWMHWVKQRPGQGLEWIGHSNPSNGGTNYNEKFKSKATLTVDKSSSTAYMQLSSLTSEDSAVYYCARWVRGSNYEYFDVWGTGTTVTVSS
VL: DIVMTQSQKFMSTTVGDRVSIICKASQNVGSAVAWCQQKPGQSPKLLIYSASNRYTGVPDRFTGSGSGTDFTLTISNMQSEDLADYFCQQYSSYPLTFAGGTKLEIKR
notes: as for B2
With B7, the OD450 in [15] came to 0.05 OD; in [16], 2.75 OD; in assay [17], 0.05 OD; in assay [18], 0.34 OD; in [19] it was 1.53 OD; in assay [20] it was 3.16 OD. The results for the OD450 in assay [21] and in [22] were 2.51 OD and 0.08 OD, respectively.

B8: F7.44.20-VL-VH (scFv, not shown: small tags and cut ends)
scFv: QIVLTQSPALMSASPGEKVTLTCSASSSVISSYLSWYQQKPGSSPKLLIYRTSNLASGVPARFSGSGSGTSYSLTISSMEAEDAASYFCHQWSSFPYTFGGGTKLEIKGGGGSGGGGSGGGGSEVQLQQSGPELVKPGASVKIPCKASGYTFTDYNMDWVKQSHGKSLEWIGDINPSTGGTIYNQKFNGKATLTEDKSASTVYMEFRSLTSDDTAVYYCARRRIGTGYFDVWGTGTTVTVSS
notes: also called S009-F7.44.20 parental variable regions, VL-VH order
On to B8, for which the OD450 was determined as 0.04 OD450 in [1]; 1.8 OD450 in assay [2]; 0.05 OD450 in [3]; 1.06 OD450 in [4]; 0.04 OD450 in [5]; 1.68 OD450 in [6]. In addition, the OD450 in assay [7] was 0.2 OD450; in assay [8], 0.05 OD450; in assay [9] it was 2.98 OD450; in assay [10], 2.14 OD450; in assay [11], 0.55 OD450; in assay [12], 0.05 OD450. Also, the OD450 is 0.11 OD450 in [13] and 0.08 OD450 in assay [14].
